This is an account of results in patent US20110151450.

Holding throughout (experiment): cleavage_in_vitro
For series [1], the system named is T1, BmtI-HF S50A (Bacillus megaterium).
T1 sequence: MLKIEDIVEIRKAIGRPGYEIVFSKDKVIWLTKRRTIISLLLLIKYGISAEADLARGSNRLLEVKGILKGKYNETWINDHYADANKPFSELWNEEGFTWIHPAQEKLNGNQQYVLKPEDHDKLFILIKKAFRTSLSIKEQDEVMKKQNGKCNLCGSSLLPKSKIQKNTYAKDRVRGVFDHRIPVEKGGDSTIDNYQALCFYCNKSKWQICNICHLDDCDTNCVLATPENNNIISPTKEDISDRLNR
The conditions noted are these: NEB4, relative activity 100%.

Series [2] addresses T2, BglII-WT (Bacillus globigii) (UniProt Q45488).
T2 sequence: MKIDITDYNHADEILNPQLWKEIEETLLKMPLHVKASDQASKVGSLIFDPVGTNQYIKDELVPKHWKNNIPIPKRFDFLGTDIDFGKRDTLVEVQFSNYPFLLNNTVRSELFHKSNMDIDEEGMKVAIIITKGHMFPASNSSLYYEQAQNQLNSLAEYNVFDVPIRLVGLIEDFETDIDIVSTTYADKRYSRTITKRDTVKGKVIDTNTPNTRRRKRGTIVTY
The conditions noted are these: NEB4, relative activity 6.3%.

In series [3] the test system is T3, PmeI-WT (Pseudomonas mendocina).
T3 sequence: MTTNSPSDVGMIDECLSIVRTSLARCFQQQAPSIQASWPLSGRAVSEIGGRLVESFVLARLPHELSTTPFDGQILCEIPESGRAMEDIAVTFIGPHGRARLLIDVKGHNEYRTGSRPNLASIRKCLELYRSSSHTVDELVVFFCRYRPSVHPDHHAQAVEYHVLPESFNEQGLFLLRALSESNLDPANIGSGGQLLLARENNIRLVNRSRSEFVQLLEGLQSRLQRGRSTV
As to conditions: NEB4, relative activity 25%.

In series [4] the target is T4, SmaI-HF F60L/S61R (Serratia marcescens) (UniProt P14229).
T4 sequence: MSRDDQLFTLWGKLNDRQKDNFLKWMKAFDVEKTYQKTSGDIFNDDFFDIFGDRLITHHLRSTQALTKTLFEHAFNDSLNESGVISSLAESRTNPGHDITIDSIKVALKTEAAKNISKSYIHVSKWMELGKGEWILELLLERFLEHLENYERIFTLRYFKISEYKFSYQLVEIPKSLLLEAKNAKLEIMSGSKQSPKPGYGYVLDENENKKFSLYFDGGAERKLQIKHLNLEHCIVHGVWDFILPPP
As to conditions: NEB4, relative activity 100%.

Series [5] relates to T5, BsaWI-WT (Bacillus stearothermophilus).
T5 sequence: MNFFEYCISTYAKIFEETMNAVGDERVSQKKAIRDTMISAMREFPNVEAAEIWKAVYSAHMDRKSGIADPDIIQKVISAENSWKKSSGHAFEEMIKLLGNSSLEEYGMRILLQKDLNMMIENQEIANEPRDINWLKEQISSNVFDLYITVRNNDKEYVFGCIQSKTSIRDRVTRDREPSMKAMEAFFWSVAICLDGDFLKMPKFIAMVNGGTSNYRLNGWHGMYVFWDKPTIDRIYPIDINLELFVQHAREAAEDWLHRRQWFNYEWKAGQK
As to conditions: NEB4, relative activity 100%.

The subject of series [6] is T6, NsiI-WT (Neisseria sicca).
T6 sequence: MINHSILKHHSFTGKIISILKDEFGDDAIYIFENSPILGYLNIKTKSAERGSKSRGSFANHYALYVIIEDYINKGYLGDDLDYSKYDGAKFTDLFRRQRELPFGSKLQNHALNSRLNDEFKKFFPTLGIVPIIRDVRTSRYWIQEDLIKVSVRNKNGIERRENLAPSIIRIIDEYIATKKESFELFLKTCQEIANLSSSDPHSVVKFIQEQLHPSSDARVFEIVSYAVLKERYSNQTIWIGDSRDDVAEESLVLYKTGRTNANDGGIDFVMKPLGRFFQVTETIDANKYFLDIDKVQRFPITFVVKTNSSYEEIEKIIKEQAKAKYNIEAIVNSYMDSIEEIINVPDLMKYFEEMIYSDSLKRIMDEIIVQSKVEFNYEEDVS
As to conditions: NEB4, relative activity 12.5%.

Series [7] has as its system T7, ApoI-WT (Arthrobacter protophormiae).
T7 sequence: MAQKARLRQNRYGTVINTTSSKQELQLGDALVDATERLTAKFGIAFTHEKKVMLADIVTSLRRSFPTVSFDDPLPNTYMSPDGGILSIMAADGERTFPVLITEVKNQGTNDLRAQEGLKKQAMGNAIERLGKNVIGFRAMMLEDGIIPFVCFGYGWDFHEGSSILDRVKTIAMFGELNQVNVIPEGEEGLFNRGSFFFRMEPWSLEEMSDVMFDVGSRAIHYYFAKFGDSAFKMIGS
The conditions noted are these: NEB4, relative activity 50%.

For the substance pXba plasmid, the activity (fidelity index) in series [1] was over 1e+06; in series [2], 16; in series [3], 64; in series [4] it was over 256000; in series [5], 16; in series [6], 32. The substance also gave an activity (fidelity index) in series [7] of 32.
